# Measured values taken from IntAct's records for PubMed 22164283.
# Molecular target: tbxt_mouse Tbxt (UniProt P20293)
# Sequence (P20293 whole entry): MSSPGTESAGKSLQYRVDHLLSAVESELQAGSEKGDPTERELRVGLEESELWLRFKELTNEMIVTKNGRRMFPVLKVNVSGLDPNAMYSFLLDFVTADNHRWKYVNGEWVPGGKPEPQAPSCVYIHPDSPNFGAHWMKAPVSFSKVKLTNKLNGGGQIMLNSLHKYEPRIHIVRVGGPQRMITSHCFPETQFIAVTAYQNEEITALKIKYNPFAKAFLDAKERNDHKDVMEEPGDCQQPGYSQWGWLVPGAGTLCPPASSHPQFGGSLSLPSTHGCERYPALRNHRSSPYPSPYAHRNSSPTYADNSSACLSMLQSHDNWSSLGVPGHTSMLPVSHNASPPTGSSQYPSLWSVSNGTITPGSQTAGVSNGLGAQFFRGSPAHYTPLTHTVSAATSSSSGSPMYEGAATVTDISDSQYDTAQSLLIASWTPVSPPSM
# Sequence of Homeobox protein MIXL1 (Mus musculus), Q9WUI0 I113R (Q9WUI0 whole entry I113R): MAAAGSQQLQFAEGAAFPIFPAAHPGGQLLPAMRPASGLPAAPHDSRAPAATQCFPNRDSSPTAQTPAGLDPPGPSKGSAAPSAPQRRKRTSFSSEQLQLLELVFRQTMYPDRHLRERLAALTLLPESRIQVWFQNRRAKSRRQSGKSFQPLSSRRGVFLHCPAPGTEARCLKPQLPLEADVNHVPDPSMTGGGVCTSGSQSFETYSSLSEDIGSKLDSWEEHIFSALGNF
# Sequence of Homeobox protein MIXL1 (Mus musculus), Q9WUI0 P126I (Q9WUI0 whole entry P126I): as the sequence (Q9WUI0 whole entry I113R) above, with R113I, P126I counted along it
# Sequence of Homeobox protein MIXL1 (Mus musculus), Q9WUI0 V132A (Q9WUI0 whole entry V132A): as the sequence (Q9WUI0 whole entry I113R) above, with R113I, V132A counted along it
# Sequence of Homeobox protein MIXL1 (Mus musculus), Q9WUI0 R143I (Q9WUI0 whole entry R143I): as the sequence (Q9WUI0 whole entry I113R) above, with R113I, R143I counted along it
row,Substance,effect of a mutation on the interaction
1,"Homeobox protein MIXL1 (Mus musculus), Q9WUI0 I113R",with no effect
2,"Homeobox protein MIXL1 (Mus musculus), Q9WUI0 P126I",decreasing interaction strength
3,"Homeobox protein MIXL1 (Mus musculus), Q9WUI0 R143I",with no effect
4,"Homeobox protein MIXL1 (Mus musculus), Q9WUI0 V132A",with no effect
